Experimental data reported in patent US20060233822A1 (YANG SHENG TANG, published 2006).
Substitutions are numbered along the chain they refer to.

Experiments:
7-peptide YQDSAKT = test: phage display panning on coated MAb; 3 clones
NE2 mutant 599AE = target: T1, NE2 mutant 599AE (hepatitis E virus, UniProt P29326 394-603); test: Western blot of NE2 mutant proteins with monoclonal antibody 16D7
T1 construct: position counted on HEV ORF2
T1 chain: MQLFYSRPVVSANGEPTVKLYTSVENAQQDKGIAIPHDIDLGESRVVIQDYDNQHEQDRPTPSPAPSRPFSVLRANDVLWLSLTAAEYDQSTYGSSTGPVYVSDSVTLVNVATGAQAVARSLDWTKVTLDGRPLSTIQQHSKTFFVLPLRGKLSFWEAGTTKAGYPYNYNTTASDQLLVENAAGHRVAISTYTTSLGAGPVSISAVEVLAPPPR

NE2 mutant 597AE = target: T2, NE2 mutant 597AE (hepatitis E virus, UniProt P29326 394-603); test: as above
T2 construct: position counted on HEV ORF2
T2 chain: T1 chain with A205E, E207A

NE2 mutant 601LD = target: T3, NE2 mutant 601LD (hepatitis E virus, UniProt P29326 394-600); test: as above
T3 construct: position counted on HEV ORF2
T3 chain: T1 chain with E207A, L209D

NE2 mutant 601LK = target: T4, NE2 mutant 601LK (hepatitis E virus, UniProt P29326 394-600); test: as above
T4 construct: position counted on HEV ORF2
T4 chain: T1 chain with E207A, L209K

NE2 mutant 601LH = target: T5, NE2 mutant 601LH (hepatitis E virus, UniProt P29326 394-600); test: as above
T5 construct: position counted on HEV ORF2
T5 chain: T1 chain with E207A, L209H

7-peptide QPATWNT = test: phage display panning on coated MAb; 1 clone
7-peptide MLWGPSD = test: phage display panning on coated MAb; 1 clone
7-peptide ALWGPTS = test: phage display panning on coated MAb; 1 clone
7-peptide GGWGPFA = test: phage display panning on coated MAb; 1 clone
7-peptide TNLRLDS = test: phage display panning on coated MAb; 1 clone

Measured: binding result

B1: monoclonal antibody 16D7 (antibody, V domains shown)
VH: EVQLQQSGPELVKPGASVKMSCKASGYKFTSYVMHWVKQKPGQGLEWIGYINPSNDNIKYNEKFKGKAILTLDKSSSTAYMAFSSLTSEDSAVYYCATLTGVDYWGQGTTLTVSS
VL: DVVMTQTPLSLSVTIGQPASISCKSSQSLLYRNGKIYLNWLQQRPGQAPKHLMSQVSKLDPGIPDRFSGSGSETDFTLKISRVEAEDLGVYYCLQGTHYPYTFGGGTKLEIKR
notes: also called MAb 16D7; HRP-16D7
binds: 7-peptide YQDSAKT | NE2 mutant 599AE | NE2 mutant 597AE | NE2 mutant 601LD | NE2 mutant 601LK | NE2 mutant 601LH | 7-peptide QPATWNT | 7-peptide MLWGPSD | 7-peptide ALWGPTS | 7-peptide GGWGPFA | 7-peptide TNLRLDS
